Measured values as given in the supplement of paper PMC10126150.
± gives the standard deviation of the averaged measurements.

Test system: ATP
Experiment: switch fluorescence ratio, 500 uM ATP over buffer (Cy3 cluster intensity, sum of 5 cycles each) (fold (ratio)); higher = stronger signal-on switching upon ATP binding; sequences stand for … in TCGTCGGCAGCGTCAGATGTGTATAAGAGACAGTTTTTTTTTTTTTTTTTTTTTTTTT…TC
Settings: aptamer strand: ATP DNA aptamer (quencher-CACCTGGGGGAGTATTGCGGAGGAAGG + anchor), 100 nM annealed; ATP concentration: 500 uM
Summary of the method: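 Values give the fluorescence ratio for each switch-domain sequence, averaged from per-cluster ratios of summed target-cycle to summed buffer-cycle Cy3 intensity. The Cy3-labelled switching-strand clusters sat on a modified Illumina MiSeq flow-cell, were annealed to 100 nM quencher-labelled ATP aptamer, and were imaged in selection buffer, then after 15 min with 500 uM ATP at 22 °C. Five cycles ran with NaOH stripping and re-annealing between them, and clusters outside 100-1000 RFU were excluded.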
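Note: ATP exposure 15 min at 22 °C before imaging.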

Point of comparison: GAGGTTCTAT, switch fluorescence ratio 1.0012 ± 0.00094. Against it:
- GAGCTATCAC — higher, 1.16 ± 0.035
- GAGCTATGTG — higher, 1.03 ± 0.0011
- GAGCTGGTGG — lower, 0.96 ± 0.019
- GAGCTTACGG — higher, 1.064 ± 0.01
- GAGCTTCTTG — higher, 1.017 ± 0.0063
- GAGGAAAAAT — higher, 1.062 ± 0.0021
- GAGGAAGGAC — higher, 1.04 ± 0.014
- GAGGACTCGT — within error, 1.01 ± 0.016
- GAGGAGGTTT — lower, 0.968 ± 0.017
- GAGGATATGT — within error, 0.971 ± 0.035
- GAGGATCAGG — within error, 1.03 ± 0.056
- GAGGATCTTG — the same, 1 ± 0.031
- GAGGATGATC — within error, 1.01 ± 0.032
- GAGGATGGGA — within error, 0.98 ± 0.022
- GAGGCCATTT — within error, 1.01 ± 0.046
- GAGGCCGTTG — within error, 1.02 ± 0.023
- GAGGCGAGTC — higher, 1.06 ± 0.029
- GAGGCGGGGA — within error, 1.01 ± 0.03
- GAGGCGTATT — within error, 0.988 ± 0.049
- GAGGCGTCAA — within error, 0.997 ± 0.027
- GAGGCTAGGG — higher, 1.05 ± 0.031
- GAGGCTAGGT — within error, 1.01 ± 0.029
- GAGGCTATGG — within error, 1.01 ± 0.022
- GAGGCTCATT — lower, 0.964 ± 0.035
- GAGGCTTAAT — lower, 0.9822 ± 0.0078
- GAGGCTTTTT — within error, 0.979 ± 0.024
- GAGGGAAAAG — within error, 1.01 ± 0.032
- GAGGGAAGTA — within error, 1.06 ± 0.17
- GAGGGACGGG — within error, 1.02 ± 0.025
- GAGGGAGGTG — higher, 1.02 ± 0.018
- GAGGGAGTGG — within error, 1.01 ± 0.037
- GAGGGATTCT — lower, 0.99037 ± 0.00064
- GAGGGATTTT — higher, 1.02 ± 0.017
- GAGGGCAATC — higher, 2.76 ± 0.64
- GAGGGCAATG — higher, 1.22 ± 0.067
- GAGGGCACTG — lower, 0.956 ± 0.023
- GAGGGCCAGG — higher, 1.13 ± 0.076
- GAGGGCCTGA — within error, 1.01 ± 0.012
- GAGGGCGGGG — within error, 1.05 ± 0.077
- GAGGGCTAAA — within error, 1.06 ± 0.082
- GAGGGCTACT — within error, 1.04 ± 0.041
- GAGGGCTTTG — the same, 1 ± 0.031
- GAGGGGAAAT — within error, 0.999 ± 0.029
- GAGGGGAGAG — the same, 1 ± 0.016
- GAGGGGAGCT — within error, 1.01 ± 0.045
- GAGGGGAGGC — within error, 1.29 ± 0.39
- GAGGGGCACG — within error, 0.935 ± 0.1
- GAGGGGCCAG — within error, 0.988 ± 0.027
- GAGGGGGATC — within error, 1.02 ± 0.035
- GAGGGGGCAA — within error, 1.01 ± 0.016
- GAGGGGGGGG — within error, 1.01 ± 0.039
- GAGGGGGGTC — within error, 1.04 ± 0.064
- GAGGGGGTGG — the same, 1 ± 0.064
- GAGGGGTTCT — within error, 0.984 ± 0.043
- GAGGGTAATA — within error, 1.01 ± 0.017
- GAGGGTAGTT — higher, 1.031 ± 0.0055
- GAGGGTCGGG — within error, 0.988 ± 0.033
- GAGGGTGGGG — within error, 1.01 ± 0.04
- GAGGGTGTCA — within error, 0.995 ± 0.017
- GAGGGTTAC — higher, 1.006 ± 0.0062
- GAGGGTTGCT — within error, 1.01 ± 0.036
- GAGGTAAAGC — the same, 1 ± 0.08
- GAGGTAATC — within error, 1.02 ± 0.037
- GAGGTAGAGG — within error, 0.986 ± 0.026
- GAGGTAGATG — lower, 0.991 ± 0.0012
- GAGGTAGTGG — lower, 0.968 ± 0.027
- GAGGTATCAT — lower, 0.9847 ± 0.0073
- GAGGTATTTT — within error, 1.34 ± 0.65
- GAGGTCGTGA — lower, 0.975 ± 0.019
- GAGGTGAAGA — within error, 0.979 ± 0.046
- GAGGTGAAGG — within error, 1.04 ± 0.055
- GAGGTGAGG — within error, 0.989 ± 0.011
- GAGGTGGTAG — lower, 0.951 ± 0.034
- GAGGTGGTTA — lower, 0.976 ± 0.015
- GAGGTGTAGC — within error, 1.01 ± 0.028
- GAGGTGTTTT — within error, 1.01 ± 0.06
- GAGGTTACGC — within error, 0.988 ± 0.053
- GAGGTTAGCT — within error, 0.976 ± 0.046
- GAGGTTAGGT — lower, 0.981 ± 0.01
- GAGGTTATAG — within error, 0.998 ± 0.02
- GAGGTTATTG — within error, 0.99 ± 0.025
- GAGGTTGTCA — lower, 0.958 ± 0.038
- GAGGTTGTG — within error, 1.01 ± 0.025
- GAGTAAGTA — the same, 1.002 ± 0.0064
